This data set has as its target hemagglutinin HA1 subunit H5 (recombinant, Abcam ab190125) (Influenza A virus A/Vietnam/1203/2004 …, UniProt Q6DQ33 17-346). The experiment in a line: SPR; 10 mM K+. The settings on record: protein: commercial.

On to TTGGGGTTAGGGAGGGCGGGGGTT (structured_DNA) [G7-TTA], for which the Kd was determined as 20 ± 6 nM. In the case of TTGGGGTTATTAAGGGAGGGCGGGGGTT (structured_DNA) [G7-TTATTAA], for the setting “parallel intramolecular G4”, the Kd came to 30 ± 10 nM. For TTGGGGTTATTTTGGGAGGGCGGGGGTT (structured_DNA) [RHA0385], the Kd worked out at 13 ± 3 nM. Still for that read-out and setting: next, TTGGGGTAAGAAGGGAGGGCGGGGGTT (structured_DNA) [G7-TAAGAA]: 60 ± 10 nM.

These data come from publication PMC7022617, “Structural and Functional Aspects of G-Quadruplex Aptamers Which Bind a Broad Range of Influenza A Viruses”.
